Measurements: article PMC5811608, “Structure of prothrombin in the closed form reveals new details on the mechanism of activation” (Scientific Reports, 2018)

Molecular target: Human recombinant prethrombin-2 (human)
Assay: SPR; Biacore S200; prethrombin-2 amine-coupled (NHS/EDC) to a CM5 chip, 1633 RU; fragment-1 injected, two-fold dilutions 7.4-119 uM, single-cycle kinetics, 35 ul/min; 20 mM HEPES, 150 mM NaCl, 5 mM CaCl2, pH 7.4; referenced to an unmodified CM5 surface
Conditions: both partners purified

Kd: > 200 µM
B1: fragment-1 of prothrombin (domain or fragment)
chain: ANTFLEEVRKGNLERECVEETCSYEEAFEALESSTATDVFWAKYTACETARTPRDKLAACLEGNCAEGLGTNYRGHVNITRSGIECQLWRSRYPHKPEINSTTHPGADLQENFCRNPDSSTTGPWCYTTDPTVRRQECSIPVCGQDQVTVAMTPR
modifications: purchased fragment-1 (presumably plasma-derived): Gla domain gamma-carboxyglutamates, N-glycans and disulfides expected; 5 mM CaCl2 in assay. Mature numbering + 43 = precursor; ends at cleavage site …
